Assay results reported in paper PMC6987245.

Legend:
[1] = biological target: TAMRA-labeled UBXN1 UBA(ext1-52) domain (UniProt Q04323); assay: MST; TAMRA-UBA peptide in FP binding buffer, K6 diUb 1.53 to 50 μM, 30 min incubation, hydrophobic capillaries, Monolith NT.115, 30% LED and 40% IR-laser power
[2] = biological target: TAMRA-labeled UBXN1 UBA(ext1-52) domain (UniProt Q04323); assay: fluorescence polarisation; 5 nM TAMRA-labeled UBA peptide fixed, diubiquitin 0.78 to 25 μM in six steps, triplicate; overnight incubation at 4°C, read at room temperature; 20 mM Tris pH 7.6, 150 mM NaCl, 0.5 mg/ml BGG, 1% TX-100; one site binding (hyperbola) fit

UniProt Q04323, sequence (Q04323 1-52): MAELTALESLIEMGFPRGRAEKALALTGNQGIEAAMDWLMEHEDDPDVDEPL

Kd [1]: 1.05 µM
Kd [2]: 1.43 µM
Substance: K6-linked diubiquitin (native, unlabeled) (from UniProt P0CG48 1-76; P0CG48 1-76)
